From publication PMC11255897

Target: Ras binding domain (RBD) of the yeast Ras effector Byr2 fused to GST
Test: pull-down with GST-Byr2(RBD), Flag immunoblot densitometry
Conditions: read off a plot; for percent of parent (% of RasC(WT)-CA binding) / percent of parent (% of wild-type RasC peak (10 s cAMP)): parent: est. 100; for percent of parent (% of wild-type RasC peak (10 s cAMP)): 10 s cAMP stimulation; for response (% of wild-type RasC peak (10 s cAMP)): basal (before cAMP stimulation), parent: est. 20

Substance | percent of parent (% of RasC(WT)-CA binding) | percent of parent (% of wild-type RasC peak (10 s cAMP)) | response (% of wild-type RasC peak (10 s cAMP)) | response (% of RasC(WT)-CA binding) (parent: est. 15)
constitutively active (CA) RasC-Q62L mutant, Flag-tagged (from UniProt P32253) A31D | 240 | – | – | –
constitutively active (CA) RasC-Q62L mutant, Flag-tagged (from UniProt P32253) A31K | 290 | – | – | –
constitutively active (CA) RasC-Q62L mutant, Flag-tagged (from UniProt P32253) A31L | 200 | – | – | –
constitutively active (CA) RasC-Q62L mutant, Flag-tagged (from UniProt P32253) K138A; R164A; K167A | 180 | – | – | –
constitutively active (CA) RasC-Q62L mutant, Flag-tagged (from UniProt P32253) K182A; K183A; R184A | 210 | – | – | –
constitutively active (CA) RasC-Q62L mutant, Flag-tagged (from UniProt P32253) Y41A | 12 | – | – | –
wild-type Flag-RasC (from UniProt P32253) A31D | – | 42 | 27 | –
wild-type Flag-RasC (from UniProt P32253) A31K | – | 130 | 28 | –
wild-type Flag-RasC (from UniProt P32253) A31L | – | 170 | 35 | –
wild-type Flag-RasC (from UniProt P32253) C186A | – | 2 | 2 | –
wild-type Flag-RasC (from UniProt P32253) E38A | – | 10 | 5 | –
wild-type Flag-RasC (from UniProt P32253) E38A; N39A; S40A | – | 18 | 19 | –
wild-type Flag-RasC (from UniProt P32253) K138A; R164A; K167A | – | 100 | – | –
wild-type Flag-RasC (from UniProt P32253) K182A; K183A; R184A | – | 17 | 8 | –
wild-type Flag-RasC (from UniProt P32253) Q62L | – | – | – | 100
wild-type Flag-RasC (from UniProt P32253) T36A | – | 8 | 11 | –
wild-type Flag-RasC (from UniProt P32253) Y41A | – | 23 | – | –
